Source: patent US11339383B2, “G proteins” (HEPTARES THERAPEUTICS LIMITED, priority 2016, dated 2022)
Positions count from the first letter of the chain named. In names and notes the source's numbering stands.

B1: Mini-Go112: mini-G protein of Go1, construct 12; SEQ ID NO:113 (protein)
chain: MGHHHHHHENLYFQGIEKNLKEDGISAAKDVKLLLLGADNSGKSTIVKQMKIIHGGSGGSGGTTGIVETHFTFKNLHFRLFDVGGQRSERKKWIHCFEDVTAIIFCVDLSDYNRMHESLMDFDSICNNKFFIDTSIILFLNKKDLFGEKIKKSPLTICFPEYTGPNTYEDAAAYIQAQFESKNRSPNKEIYCHMTCATDTNNAQVIFDAVTDIIIANNLRGCGLY
modifications: Mini-Go112
B2: Mini-Golf6: mini-G protein of Golf, 7 point mutations and 3 deletions from mini-Gs; SEQ ID NO:105 (protein)
chain: MGHHHHHHENLYFQGIEKQLQKERLAYKATHRLLLLGADNSGKSTIVKQMRILHGGSGGSGGTSGIFETRFQVDKVNFHMFDVGGQRDERRKWIQCFNDVTAIIYVADCSDYNRLRESLDDFESIWNNRWLRTISIILFLNKQDMLAEKVLAGKSKIEDYFPEYANYTVPEDATPDAGEDPKVTRAKFFIRDLFLRISTATGDGKHYCYPHFTCAVDTENARRIFNDCRDIIQRMHLKQYELL
modifications: Mini-Golf6
B3: Mini-G128: mini-G protein of G12, construct 8; SEQ ID NO:114 (protein)
chain: MGHHHHHHENLYFQGIDALLARERRAVRRLVKILLLGADNSGKSTFLKQMRIIHGGSGGSGGTKGIVEHDFVIKKIPFKMVDVGGQRSQRQKWFQCFDGITSILFMVDSSDYNRLVESMNDFETIVNNKLFFNVSIILFLNKMDLLVEKVKTVSIKKHFPDFRGDPHRLEDVQRYLVQCFDRKRRNRSKPLFHHFTTAIDTENARFIFHAVKDTILQENLKDIMLQ
modifications: Mini-G128
B4: Mini Gs393 (protein)
chain: MGHHHHHHENLYFQGIEKQLQKDKQVYRATHRLLLLGADNSGKSTIVKQMRILHGGSGGSGGTSGIFETKFQVDKVNFHMFDVGGQRDERRKWIQCFNDVTAIIFVVDSSDYNRLQEALNDFKSIWNNRWLRTISVILFLNKQDLLAEKVLAGKSKIEDYFPEFARYTTPEDATPEPGEDPRVTRAKYFIRDEFLRISTASGDGRHYCYPHFTCAVDTENARRIFNDCRDIIQRMHLRQYELL
modifications: N-terminal His tag, TEV site; MINI GS393
B5: Mini-Gs/q57: mini-Gs with five C-terminal residues changed to Gαq (Q390E, E392N, L394V) (protein)
chain: B4 chain with Q239E, E241N, L243V
modifications: Mini-Gs/q57
B6: Mini-Gs/i143: mini-Gs with 9 α5 helix mutations changing coupling specificity to Gi1; SEQ ID NO:111 (protein)
chain: B4 chain with C228V, R229T, Q233I, R234K, H236N, Q239D, Y240C, E241G, L243F
modifications: Mini-Gs/i143
B7: Mini-Gs/q70: mini-Gs with R380K Q384L R385Q H387N Q390E E392N L394V (protein)
chain: GIEKQLQKDKQVYRATHRLLLLGADNSGKSTIVKQMRILHGGSGGSGGTSGIFETKFQVDKVNFHMFDVGGQRDERRKWIQCFNDVTAIIFVVDSSDYNRLQEALNDFKSIWNNRWLRTISVILFLNKQDLLAEKVLAGKSKIEDYFPEFARYTTPEDATPEPGEDPRVTRAKYFIRDEFLRISTASGDGRHYCYPHFTCAVDTENARRIFNDCKDIILQMNLREYNLV
B8: Mini Gs77 (protein)
chain: MGHHHHHHANKKIEKQLQKDKQVYRATHRLLLLGAGESGKSTIVKQMRILHVNGGGDQDALRSRVLTSGIFETKFQVDKVNFHMFDVGGQRDERRKWIQCFNDVTAIIFVVASSSYNMVIREDNQTNRLQEALNLFKSIWNNRWLRTISVILFLNKQDLLAEKVLAGKSKIEDYFPEFARYTTPEDATPEPGEDPRVTRAKYFIRDEFLRISTASGDGRHYCYPHFTCAVDTENIRRVFNDCRDIIQRMHLRQYELL
modifications: MINI GS77

Legend:
[1] = molecular target: T1, β1AR-84 (Meleagris gallopavo, UniProt P07700, C116L/C358A/D322K/DEL244-271/F327A/F338M/M44C/M90V/V103C); experiment: Saturation binding assay, ^3H-DHA binding to β1AR-84; design: species or system turkey; details: insect cell membranes, 20° C.
T1 construct: His6 (C); made in house; host or cells: Trichoplusia ni (High Five) insect cells, BaculoGold baculovirus
T1 sequence (P07700 other isoform, or with tags, fused parts or gaps M44C/M90V/V103C/C116L/DEL244-271/D322K/F327A/F338M/C358A): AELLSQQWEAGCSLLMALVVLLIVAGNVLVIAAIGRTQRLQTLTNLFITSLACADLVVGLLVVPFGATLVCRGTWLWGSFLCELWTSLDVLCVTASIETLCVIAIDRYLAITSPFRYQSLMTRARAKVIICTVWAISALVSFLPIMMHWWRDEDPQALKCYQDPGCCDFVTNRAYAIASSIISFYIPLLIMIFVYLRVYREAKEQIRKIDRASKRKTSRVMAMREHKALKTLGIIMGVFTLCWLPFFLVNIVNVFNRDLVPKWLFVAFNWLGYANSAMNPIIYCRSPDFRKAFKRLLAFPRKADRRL
Experimental: FIG. 2. Saturation binding data for β1AR constructs. […] Data represent mean±SEM of three independent experiments. Curves shown are from a representative experiment performed in duplicate.
Insect cells expressing β1AR were resuspended in 1 ml of assay buffer (20 mM HEPES, pH 7.5, 100 mM NaCl), supplemented with Complete EDTA-free protease inhibitors (Roche). Cells were broken by 10 passages through a bent 26 G needle. Cell debris was removed by centrifugation (3000 g for 5 mins at 4° C.). The supernatant was diluted and 2×0.96 ml aliquots taken for each sample. Alprenolol (120 μl) was added to the negative sample (1 mM final concentration) and assay buffer (120 μl) was added to the positive sample. Samples were aliquoted (12×108 μl) into a PCR plate. [^3H]-dihydroalprenolol (12 μl) was added to each well (to give final concentrations in the range: 2.5 nM-2.56 μM). Samples were mixed and incubated at 20° C. for 2 h. Samples (2×50 μl duplicates) were vacuum filtered through 96-well glass fibre filter plates (Merck Millipore), pre-soaked with PEI (0.1%). Each well was washed with assay buffer (3×200 μl). Filters were dried, punched into scintillation vials and 4 ml Ultima Gold scintillant (Perkin Elmer) was added. Radioactivity was quantified by scintillation counting (1 min per sample) using a Tri-Carb counter (Perkin Elmer). Data for negative samples were subtracted from positive samples. […]

[2] = molecular target: T1, β1AR-84; type: binding, turkey; details: membranes
[3] = Stability of mini-G proteins in detergent by native DSF; type: physicochemical; details: 2 mg/ml, onset of scattering
Experimental: (§1) For constructs see FIGS. 29 and 35-37. Expression, purification and stability measurements by differential scanning fluorimetry (DSF) of the mini-G proteins as well as the non-lipidated Gβ1γ2 dimer, were performed following the protocols described in Example 1. The stability of mini-G proteins was also determined in detergent using native DSF (NanoTemper Prometheus). Mini-G proteins (2 mg/ml) in 50 mM HEPES pH 7.5 (KOH), 20 mM MgCl2, 50 mM NaCl, 1 μM GDP were mixed with either no detergent (control), 0.1% LMNG or 0.1% DDM. Samples were incubated on ice (minimum 30 min) prior to heating on the Prometheus (20% excitation, 15° C.-85° C., rate of 2.0° C./min) and the onset of scattering determined.

[4] = Thermostability of GDP-bound mini G proteins by differential scanning fluorimetry (DSF); type: physicochemical; details: mini-G protein alone, GDP-bound
Experimental: SYPRO-orange (15 μl) was added from a 20× stock solution to give a final concentration of 2×. Samples were mixed and 2×50 μl aliquots (duplicates) were transferred to 0.2 ml PCR tubes (Qiagen). Thermostability measurements were performed using a Rotor-Gene Q (Qiagen). Samples were equilibrated for 90 s at 25° C. before ramping from 25 to 99° C. at 4 s/° C. The melting temperature (Tm), corresponding to the inflection point of the curve, was derived from analysis using the Rotor-Gene Q software. Tm values were calculated as the mean±SEM from three independent experiments.
as §1

[5] = molecular target: A2AR (Homo sapiens, UniProt P29274, N154A); experiment: Thermostability assay of ^3H-NECA-bound A2AR
Chain of A2AR (P29274 1-317 N154A): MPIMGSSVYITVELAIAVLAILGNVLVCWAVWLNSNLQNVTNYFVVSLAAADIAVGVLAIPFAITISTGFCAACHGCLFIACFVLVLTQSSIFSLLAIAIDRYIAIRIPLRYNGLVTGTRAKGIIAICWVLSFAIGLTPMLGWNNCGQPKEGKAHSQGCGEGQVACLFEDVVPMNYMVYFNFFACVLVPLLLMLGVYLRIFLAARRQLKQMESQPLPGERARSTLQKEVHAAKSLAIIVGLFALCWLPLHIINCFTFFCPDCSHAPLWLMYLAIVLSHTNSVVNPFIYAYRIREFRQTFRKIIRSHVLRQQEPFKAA
Experimental: The samples were incubated at room temperature for 1 h, then chilled on ice for 30 min. DDM, DM or OG were added to a final concentration of 0.1%, 0.13% or 0.8%, respectively, and samples were incubated on ice for 1 h. Cell debris was removed by centrifugation for 5 min at 20,000×g and the supernatant was aliquoted into PCR strips. Samples were heated to the desired temperature for exactly 30 min, then quenched on ice for 30 min. Samples (50 μl) were loaded onto gel filtration resin packed into a 96-well filter plate (Millipore), which was centrifuged to separate receptor-bound from free radioligand. […] Data were analyzed by nonlinear regression using GraphPad Prism software. Apparent Tm values were derived from sigmoidal dose-response analysis. Results represent the mean±SEM of two independent experiments, performed in duplicate.
Samples were heated to the desired temperature for exactly 30 min, then quenched on ice for 30 min. Samples (50 μl) were loaded onto gel-filtration resin (Toyopearl HW-40F) packed into a 96-well filter plate (Millipore), which was centrifuged to separate receptor-bound from free radioligand [28]. […] Data were analysed by nonlinear regression using GraphPad Prism software. Apparent Tm values were derived from sigmoidal dose-response analysis performed by non-liner regression. Results represent the mean±SEM of two independent experiments, performed in duplicate.

| Molecule | Stability in detergent measured by native DSF, 0.1% DDM [3] [°C] | Stability in detergent measured by native DSF, 0.1% LMNG [3] [°C] | Stability in detergent measured by native DSF, No detergent [3] [°C] | Stability measured by DSF [4] [°C] | further results |
| --- | --- | --- | --- | --- | --- |
| CCCc1ccccc1OCC(O)CNC(C)C (stereo not drawn) [^3H-DHA, ^3H-dihydroalprenolol] |  |  |  |  | Kd [1]: 20 ± 3 nM |
| Gs: non-lipidated Gs (Gαsβ1γ2) heterotrimer [reference compound] |  |  |  |  | shift of isoprenaline Ki of β1AR-84 in response to binding partner, 20° C. ([2]; relative to uncoupled […]): 9.6 fold |
| B1 | 32.6 ± 0.2 | 40.7 ± 0.1 | 43.6 ± 0.2 |  | Stability measured by DSF ([4]; listed as Go1 12): 63.8 ± 0.1 °C; Stability measured by DSF ([4]; listed as mini-Go1): 64 °C |
| B2 | 37.4 ± 0.2 | 41.9 ± 0.0 | 44.3 ± 0.1 |  | Stability measured by DSF ([4]; listed as Golf 6): 64.8 ± 0.4 °C; Stability measured by DSF ([4]; listed as mini-Golf): 65 °C |
| B3 | 41.2 ± 0.2 | 46.0 ± 0.1 | 50.3 ± 0.1 | 73 | Stability measured by DSF ([4]; listed as Gl2 8): 72.6 ± 0.3 °C |
| B4 | 39.1 ± 0.0 | 44.9 ± 0.2 | 47.7 ± 0.2 | 65.3 ± 0.0 | GTP-mediated dissociation of β1AR-84 complexes ([2]; 0.25 mM GTPγS): completely resistant |
| B5 |  |  |  |  | coupling of mini-Gs/q chimera to A2AR (thermostability assay and SEC) [5]: still observed |
| B6 | 35.9 ± 0.1 | 41.1 ± 0.1 | 44.8 ± 0.0 | 69.0 ± 0.1 |  |
| B7 | 36.2 ± 0.1 | 44.2 ± 0.2 | 47.2 ± 0.3 | 67.2 ± 0.4 | coupling of mini-Gs/q chimera to A2AR (thermostability assay and SEC) [5]: no binding |
| B8 |  |  |  |  | shift of isoprenaline Ki of β1AR-84 in response to binding partner, 4° C. ([2]; relative to uncoupled […]): 21 fold |
